The values below come from US20190083615A1 (Merck Sharp & Dohme, published 2019).

To fix the notation:
T1: human LAG3 (Lymphocyte Activation Gene-3) expressed on cells (human, UniProt P18627 23-525)
T1 sequence: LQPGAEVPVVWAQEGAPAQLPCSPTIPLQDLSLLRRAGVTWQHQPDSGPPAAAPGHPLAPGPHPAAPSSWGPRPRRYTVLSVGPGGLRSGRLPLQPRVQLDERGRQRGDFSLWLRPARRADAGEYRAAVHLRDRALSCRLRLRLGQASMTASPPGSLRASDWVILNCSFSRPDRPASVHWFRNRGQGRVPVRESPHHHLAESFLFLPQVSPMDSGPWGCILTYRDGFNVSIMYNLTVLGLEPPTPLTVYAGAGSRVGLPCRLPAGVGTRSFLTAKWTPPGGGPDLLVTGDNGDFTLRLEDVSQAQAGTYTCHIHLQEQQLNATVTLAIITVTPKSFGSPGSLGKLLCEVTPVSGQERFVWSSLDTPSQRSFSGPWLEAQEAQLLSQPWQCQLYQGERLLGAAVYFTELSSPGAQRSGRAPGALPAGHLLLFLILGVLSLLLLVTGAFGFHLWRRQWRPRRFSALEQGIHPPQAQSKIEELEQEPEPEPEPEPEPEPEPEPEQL

T2: human LAG3-huFc recombinant protein (human, UniProt P18627 23-450, limits assumed, biotinylated in the runs with humanized and chimeric antibodies (Example 11))
T2 construct: also called human LAG3-Fc; huLAG3-huFc; not shown: human Fc
T2 sequence: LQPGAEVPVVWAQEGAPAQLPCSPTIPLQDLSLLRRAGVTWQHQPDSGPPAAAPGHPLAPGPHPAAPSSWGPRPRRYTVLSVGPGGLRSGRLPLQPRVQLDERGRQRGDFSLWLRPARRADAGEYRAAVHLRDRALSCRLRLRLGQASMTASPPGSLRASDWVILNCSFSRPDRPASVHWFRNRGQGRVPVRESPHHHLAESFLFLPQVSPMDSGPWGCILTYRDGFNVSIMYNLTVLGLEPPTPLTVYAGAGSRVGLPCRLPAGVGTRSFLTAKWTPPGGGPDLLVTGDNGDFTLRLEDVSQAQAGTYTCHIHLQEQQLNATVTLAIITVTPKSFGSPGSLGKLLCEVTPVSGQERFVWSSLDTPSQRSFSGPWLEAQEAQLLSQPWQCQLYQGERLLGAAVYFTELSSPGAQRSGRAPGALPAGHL

T3: Human LAG3-His: [VEGF leader]-LAG3_H-[His9G] (human, UniProt P18627 23-450)
T3 construct: also called human LAG3-His tagged recombinant protein; hLAG3-His
T3 sequence: T2 sequence

B1: mouse anti-human LAG3 antibody LB148.11C9.1C1 (antibody, mouse IgG1, V domains shown)
VH: QVQLQQPGAELVMPGASAKMSCKASGYTLTDYWMHWVKQRPGQGLEWIGAIDISDSYSSYNQKFKGKATLTVDESSSTAYMQLTSLTSEDSAVYYCARSPFYNSRGGNYFDYWGQGTTLTVSS
VL: DIQMTQTTSSLSASLGDRVTISCRASQDISNYLNWYQQKPDGTVKLLIYYTSRLHSGVPSRFSGSGSGTDYSLTISNLEQEDIATYFCQQGDTLPPWTFGGGTKLEIK
notes: also called Lag3 clone 11C9
B2: mouse anti-human LAG3 antibody LB145.22D2.E1.1D1 (antibody, mouse IgG2a, V domains shown)
VH: EVLLLQSGPELVKPGTSVKIPCKASGYTFTDYNVDWVKQRHGKGLEWIGDINPNNGGTIYSQKFKGKATLTVDKSSSTAFMELRSLTSEDTAVYFCARNYRWFGAMDHWGQGTSVTVSS
VL: DIVLTQSPASLAVSPGQRATISCKASQSLDYEGDSDMNWYQQKPGQPPRLLISGASNLESGIPARFSGSGSGTDFTVNIHPVEEEDAATYYCQQSTEDPRTFGGGTKLEIK
notes: also called Lag3 clone 22D2; LB145.22D2.E1.D1
B3: mouse anti-human LAG3 antibody LB148.19E8.G1.1A1 (antibody, mouse IgG2b, V domains shown)
VH: QIRLQQSGPELVKPGASVKISCKASGSSFTDYYINWVKQKPGQGLEWIGWIYPGSGNSIYNENFKAKATLTVDTSSSTAYMHLSSLTSEDTAVYFCAREADYDDALDYWGQGTSVTVSS
VL: HILLTQSPAILSVSPGERVSFSCRASQSIGTSIHWYQQRTNGSPRLLIKYASESISGIPSRFSGSGSGTDFTLSINSVESEDIADYYCQQSNSWPTYTFGGGTKLEIK
notes: also called Lag3 clone 19E8
B4: mouse anti-human LAG3 antibody LB148.4A10.1H1 (antibody, mouse IgG2a, V domains shown)
VH: EVQLLQSGAELVRSGASVKLSCTASGFNIEDYYMHWMKQRPEQGLEWIGWIDPVNGDTEYAPKFQGKATMTADTSSNTAYLHLNSLTSEDTAVYYCNFYDGYLFAFWGQGTLVTVSA
VL: DIVLTQAAPSVPVTPGESVSISCRSSKSLLHSDGNTYLYWLLQRPGQSPQLLIYRMSNLASGVPDRFSGSGSGTVFTLRISRLEAEDVGIYYCMQHLEYPFTFGGGTKLEIK
notes: also called Lag3 clone 4A10
B5: Ab5: humanized light chain 45AGX Humanized x[LAG3_H] mAb (LB145.22D2.E1.D1 (VL3)) Kappa (PX) and humanized heavy chain 57AHH Humanized x[LAG3_H] mAb … (antibody)
heavy: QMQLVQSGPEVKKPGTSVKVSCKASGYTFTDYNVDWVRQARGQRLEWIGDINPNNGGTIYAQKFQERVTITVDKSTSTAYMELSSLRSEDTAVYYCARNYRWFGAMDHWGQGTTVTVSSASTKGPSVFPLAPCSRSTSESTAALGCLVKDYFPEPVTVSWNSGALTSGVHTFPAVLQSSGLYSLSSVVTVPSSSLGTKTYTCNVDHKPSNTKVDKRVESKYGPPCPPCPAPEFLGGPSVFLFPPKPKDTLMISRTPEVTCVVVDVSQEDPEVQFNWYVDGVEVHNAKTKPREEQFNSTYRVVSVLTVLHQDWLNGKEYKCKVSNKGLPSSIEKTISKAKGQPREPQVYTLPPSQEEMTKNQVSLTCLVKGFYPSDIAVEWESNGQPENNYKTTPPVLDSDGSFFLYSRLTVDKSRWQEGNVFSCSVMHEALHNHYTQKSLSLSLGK
light: DIVMTQTPLSLSVTPGQPASISCKASQSLDYEGDSDMNWYLQKPGQPPQLLIYGASNLESGVPDRFSGSGSGTDFTLKISRVEAEDVGVYYCQQSTEDPRTFGGGTKVEIKRTVAAPSVFIFPPSDEQLKSGTASVVCLLNNFYPREAKVQWKVDNALQSGNSQESVTEQDSKDSTYSLSSTLTLSKADYEKHKVYACEVTHQGLSSPVTKSFNRGEC
notes: Humanized 22D2, IgG4 S228P/kappa; also called Hu22D2 VH6/VL3 (Ab 5); hu22D2 VH6/VL3
B6: 22D2 chimera: chimeric antibody [LAG3_H] mAb (LB145.22D2.E1.D1 (VH0/VL0) Geneart) IgG4 S228P/kappa (PX) (antibody, V domains shown)
VH: B2 VH
VL: B2 VL
notes: It is described as the parental LB145.22D2.E1.D1 VH0/VL0 on human IgG4 with the hinge-stabilizing S228P mutation and kappa; also called Chimeric 22D2; chimeric 22D2

Where “and” joins values, the source holds several entries; their conditions need not be identical. Equal entries are not always repeated.

The target in one assay is T1, human LAG3 (Lymphocyte Activation …). As to the kind of experiment: cell-based or functional assay.
Regarding B1, the “EC50 for IL-2 rescue, hLAG3-3A9 T cell system” value (shortened to “EC50 for IL-2 rescue”) is 3.56 nM and 4.06 nM.

B2: the “EC50 for IL-2 rescue” value was 1.06 nM and 1.65 nM.

B3: the “EC50 for IL-2 rescue” value is 1.74 nM and 1.83 nM.

B4: the “EC50 for IL-2 rescue” value is 2.83 nM and 2.96 nM.

The target in a further assay is T2, human LAG3-huFc recombinant protein. Description: flow cytometry, blockade of human LAG3-huFc binding to MHC class II on Daudi cells. The protocol:
(§1) Mouse anti-human LAG3 clones were tested for their ability to block hLAG3 interaction with human MHC Class II. Daudi cells (ATCC #CCL-213) were used as a cell line positive for human MHC class II expression. Daudi cells were blocked with 10 ug/ml of goat IgG in HBSS and 2% BCS on ice for 30 minutes and 0.5×10⁶ cells/sample were aliquoted into a 96-well V-bottom plate and blocking buffer removed. […] Cells were pelleted by centrifugation at 1200 rpm and washed twice with HBSS/2% BCS. […] Cells were washed twice as described above, resuspended in HBSS/2% BCS and read on the FACSCalibur.
Background: In flow cytometry, cells or beads pass a laser one at a time.
Consider B1, for which the IC50 (in general, the concentration needed to halve the response being measured) amounted to 2 nM.

On to B2, for which the IC50 is 2.1 nM.

Regarding B3, the IC50 came to 2.8 nM.

For B4, the IC50 was 1.9 nM.

Another assay concerns the target T3, Human LAG3-His: [VEGF …. As to the kind of experiment: SPR (Biacore T200), antibody captured on goat anti-mouse Fc, human LAG3-His as analyte, 1:1 Langmuir fit. The protocol:
Mouse anti-human LAG3 clones listed above were injected over the immobilized goat anti-mouse surfaces at 1 ug/mL for a capture level of 40 RU. HBS-EP+ buffer (BR-1006-69) was used as the running buffer with a flow rate of 30 μL/min.
Varying concentrations of human LAG3-His protein ranging from 0.15 nM to 18.8 nM, at a flow rate of 40 μL/min were injected over the antibody surfaces.
Background subtraction binding sensorgrams were used for analyzing the rate constant of association (kₐ) and dissociation (kd), and the equilibrium dissociation constant KD. The resulting data sets were fitted with a 1:1 Langmuir Binding Model using the Biacore T200 evaluation software (version 2.0).
Background: In SPR one partner is held on a chip, and binding of the other changes the refractive index at the surface.
Take B1: binding was characterised by a dissociation constant (Kd) of 1.47 nM, the off-rate (koff) (commonly the rate constant with which the complex falls apart) turned out to be 0.00192 s⁻¹ and the kon (usually the rate constant with which the complex forms) stood at 1.31e+06 M⁻¹ s⁻¹.

As for B2, binding was characterised by a dissociation constant (Kd) of 0.00277 nM, the koff worked out at 3.84e-05 s⁻¹ and the kon came to 1.39e+07 M⁻¹ s⁻¹.

As to B3, the Kd – broadly, the concentration at which binding is half-saturated – turned out to be 0.0147 nM; the koff amounted to 0.000109 s⁻¹; the kon stood at 7.43e+06 M⁻¹ s⁻¹.

B4 had a dissociation constant (Kd) of 0.0903 nM, an off-rate constant (koff) of 0.000113 s⁻¹ and a kon of 1.25e+06 M⁻¹ s⁻¹.

The next assay concerns the target T2, human LAG3-huFc recombinant protein. Description: flow cytometry, blockade of human LAG3-huFc (2 ug/ml) binding to MHC class II on Daudi cells. On the procedure:
as §1
B1: the IC50 is 2 nM.

As for B2, the IC50 turned out to be 2.1 nM.

Regarding B3, the IC50 amounted to 2.8 nM.

For B4, the IC50 worked out at 1.9 nM.

For the next assay, the target named is T1, human LAG3 (Lymphocyte Activation …). As to the kind of experiment: cell based KinExA, BaF/3 cells transfected with human LAG3 (n=2). The protocol: The affinities of the LAG3 antibodies for LAG3 were determined using a cell based Kinetic Exclusion Assay (KinExA). Cell based KinExA can be used to measure the affinity of a molecule for a binding partner on a cell surface (Rathanaswami et al. Analylitical Biochemistry 373(1): 52-60 (2008); Xie et al. J. Immunol. Methods 304 (1-2): 1-14 (2005)). In this case, BaF/3 cells were stably transfected with human and cynomolgus monkey LAG3 proteins. Transfected cells or the parental BaF/3 control cell line were grown to a density of 1.7×10⁶ to 3.2×10⁶ cells per ml at 37° C., 120 RPM, 5% CO₂, in 1X RPMI 1640 media with 10% FBS, 10 ng/ml IL-3, 5 μg/ml puromycin. Cells were concentrated, mixed with 15 pM or 150 pM antibody in cell culture media and incubated 24 to 48 hours at room temperature while rotating at 20 to 30 RPM. Cells were present at a top concentration of 2×10⁷ cells per ml (parental BaF/3 or cynomolgus LAG3 transfectants) or 1×10⁷ cells per ml (human LAG3 transfectants) and diluted in a 2-fold, 18 member series. The cells were pelleted and free antibody in the supernatant was measured using a KinExA 3200 instrument (Sapidyne, Id., USA). […] Antibody on the beads was labeled with 1.5 μg/ml Alexa Fluor® 647 conjugated goat anti-human (Fab′)₂ (Jackson ImmunoResearch Laboratories), washed and the fluorescent signal was read all using the KinExA™ 3200. The data from the 15 pM and 150 pM concentrations of each antibody were fit simultaneously using KinExA™ Pro n-Curve Analysis software version 4.0.11 (Sapidyne).
Molecule B5 had a dissociation constant (Kd) of 0.006 nM. That is a picomolar value.

For B6, binding was characterised by a dissociation constant (Kd) of 0.003 nM. This Kd is about 2-fold lower than that of the molecule before.

Another assay deals with T2, human LAG3-huFc recombinant protein. As to the kind of experiment: flow cytometry, blockade of biotinylated human LAG3-huFc binding to MHC class II on Daudi cells, streptavidin-PE. The protocol:
as §1, with “anti-human LAG3 and humanized anti-LAG3 clones were” for “anti-human LAG3 clones were”
Take B5: the concentration for half-maximal inhibition (IC50) was 2.6 nM.

Turning to B6, the IC50 was determined as 2.5 nM.
